Data from patent US20230242662A1 (BIOATLA, published 2023).

T1: recombinant cyno CD46 antigen (cynomolgus, UniProt A0A2K5WCL8 35-328)
T1 construct: extracellular domain; Plate-coated antigen of the ELISA; also called cynomolgus CD46 extracellular domain
T1 sequence: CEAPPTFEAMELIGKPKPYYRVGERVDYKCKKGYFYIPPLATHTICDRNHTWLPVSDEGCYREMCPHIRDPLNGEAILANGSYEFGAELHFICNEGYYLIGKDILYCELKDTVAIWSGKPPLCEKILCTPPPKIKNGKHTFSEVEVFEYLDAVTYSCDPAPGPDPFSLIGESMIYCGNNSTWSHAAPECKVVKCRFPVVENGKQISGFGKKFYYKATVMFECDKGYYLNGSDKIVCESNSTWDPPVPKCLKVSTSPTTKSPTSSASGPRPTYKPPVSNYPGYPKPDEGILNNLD

T2: huCD46-His (human, UniProt P15529 35-343)
T2 construct: extracellular domain; Immobilised by amine coupling on the SPR chip; It may be the same protein as the ELISA antigen; also called Human CD46-His; human CD46; not shown: His tag
T2 sequence (looked up): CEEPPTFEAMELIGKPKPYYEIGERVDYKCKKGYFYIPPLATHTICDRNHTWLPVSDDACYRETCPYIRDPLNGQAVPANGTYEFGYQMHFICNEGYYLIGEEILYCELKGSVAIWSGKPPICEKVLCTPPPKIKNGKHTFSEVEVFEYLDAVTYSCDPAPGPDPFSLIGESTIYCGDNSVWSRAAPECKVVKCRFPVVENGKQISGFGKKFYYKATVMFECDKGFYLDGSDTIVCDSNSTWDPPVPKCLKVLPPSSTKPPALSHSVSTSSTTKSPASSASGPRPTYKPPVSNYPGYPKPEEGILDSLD

T3: cynoCD46-His (cynomolgus, UniProt A0A2K5WCL8 35-328)
T3 construct: extracellular domain; Immobilised by amine coupling on the SPR chip; not shown: His tag
T3 sequence: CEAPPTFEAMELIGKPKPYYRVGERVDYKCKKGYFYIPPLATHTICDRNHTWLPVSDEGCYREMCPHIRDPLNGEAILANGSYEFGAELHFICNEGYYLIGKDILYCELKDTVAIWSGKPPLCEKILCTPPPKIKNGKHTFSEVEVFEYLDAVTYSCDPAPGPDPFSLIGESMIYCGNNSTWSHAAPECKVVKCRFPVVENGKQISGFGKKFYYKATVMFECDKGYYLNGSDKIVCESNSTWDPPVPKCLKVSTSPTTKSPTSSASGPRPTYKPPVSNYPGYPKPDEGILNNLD


What was measured:
[1] = target: T4, cyno CD46 expressed on 293 cells (cynomolgus); test: FACS, 293 cells expressing cyno CD46, pH 7.4
T4 construct: whole, on cells; The construct on the cells is not described; also called HEK 293 cells expressing cyno CD46
Protocol: (§1) A similar FACS analysis was also carried out using 293 cells expressing cyno CD46. […] The EC50 values for binding to the 293 cells expressing cyno CD46 by the conditionally active anti-CD46 antibodies are summarized in Table 6.

[2] = target: T1, recombinant cyno CD46 antigen; test: ELISA, coated cyno CD46; EC50 at pH 7.4 over EC50 at pH 6.0
Protocol: The binding activities of conditionally active anti-CD46 antibodies to cyno CD46 were measured by ELISA and are shown in FIGS. 3-4. The EC50 values for binding to the cyno CD46 at pH 6.0 and pH 7.4 for the conditionally active anti-CD46 antibodies are summarized in Table 2.
[…] Cover with sealing film and place the plate onto a plate shaker set to 50 rpm for 60 minutes at room temperature. [0351] 6) Decant plates and tap out residual liquid on a stack of paper towels. [0352] 7) Serially dilute test articles in 3-fold dilutions starting at 3000 ng/mL in pH 6.0 or pH 7.4 ELISA incubation buffer. [0353] 8) Add 100 μL/well of diluted test articles to the plates [0354] 9) Cover with sealing film and place the plates onto a plate shaker set to 50 rpm for 60 minutes at room temperature. […] 10) Decant plates and tap out residual liquid on a stack of paper towels. [0356] 11) Wash wells three times by dispensing 200 μL of pH 6.0 or pH 7.4 ELISA wash buffer to the wells and completely aspirate the contents. [0357] 12) Dilute the HRP secondary antibody at 1:2500 in pH 6.0 or pH 7.4 ELISA incubation buffer. [0358] 13) Add 100 μL HRP secondary antibody diluted in pH 6.0 or pH 7.4 ELISA incubation buffer to each well [0359] 14) Cover with sealing film and place the plates onto a plate shaker set to 50 rpm for 60 minutes at room temperature. [0360] 15) Decant plates and tap out residual liquid on a stack of paper towels. [0361] 16) Wash wells three times by dispensing 200 μL of pH 6.0 or pH 7.4 ELISA wash buffer to the wells and completely aspirate the contents. [0362] 17) Dispense 50 μL per well of the TMB substrate solution into all wells of the plates. Incubate at room temperature for about 2 minutes 15 seconds or 2 minutes. […] 18) Add 50 μL per well of 1N HCl into all wells of the plates. Read plates at 450 nm using PerkinElmer, EnSpire 2300 Multilabel Reader.

[3] = target: T2, huCD46-His; test: SPR, huCD46-His immobilised, antibody as analyte, pH 7.4
Protocol: (§2) Binding kinetics of anti-CD46 antibodies were measured by surface plasmon resonance on a SPR2/4 instrument (Sierra Sensors, Hamburg, Germany) and flat amine sensor chips. The SPR sensor contained four flow cells (FC1-FC4), each of which can be addressed individually or in groups. huCD46-His was immobilized in FC2, and cynoCD46-His was immobilized in FC4. No protein was immobilized in FC1 and FC3 which were used as control surfaces for FC2 and FC4, respectively.
(§3) All injections were done at a flow rate of 25 μL/min and 25° C. The sensor surface was activated with 1-ethyl-3-(3-dimethylaminopropyl)-carbodiimide (EDC) and N-hydroxysuccinimide (NHS) (200 mM/50 mM) for 480 seconds. Human CD46-His (2 μg/mL in 10 mM NaAc, pH5.0) was injected for 480s and the surface was inactivated by injecting 1M ethanolamine-HCl for 480s. cynoCD46-His was immobilized using the same conditions as described for huCD46-His, except that it was diluted into 10 mM NaAc buffer pH4.5. The control surface was activated and deactivated using the same conditions, but without injecting protein. PBST buffer (PBS pH7.4 with 0.05% TWEEN20™) was used as running buffer for the surface preparation. The running solution was switched to PBST with 30 mM sodium bicarbonate with the pH adjusted as indicated in the figures before the analyte injections. The instrument was equilibrated with the running solution for one hour before the first analyte injection.
(§4) The off-rate was measured for 360 s. The chip surface was regenerated after each cycle of interaction by injecting 6 μL of 10 mM glycine (pH 2.0). Flow cells 1 and 3 without immobilized protein were used as control surfaces for reference subtraction.

[4] = target: T3, cynoCD46-His; test: SPR, cynoCD46-His immobilised, antibody as analyte, pH 6.0
Protocol: as §2, §3, §4

[5] = target: T3, cynoCD46-His; test: SPR, cynoCD46-His immobilised, antibody as analyte, pH 7.4
Protocol: as §2, §3, §4

[6] = target: T2, huCD46-His; test: SPR, huCD46-His immobilised, antibody as analyte, pH 6.5
Protocol: as §2, §3, §4

[7] = target: T2, huCD46-His; test: SPR, huCD46-His immobilised, antibody as analyte, pH 6.0
Protocol: as §2, §3, §4

[8] = target: T3, cynoCD46-His; test: SPR, cynoCD46-His immobilised, antibody as analyte, pH 6.5
Protocol: as §2, §3, §4

[9] = target: T4, cyno CD46 expressed on 293 cells; test: FACS, 293 cells expressing cyno CD46; EC50 at pH 7.4 over EC50 at pH 6.0
Protocol: as §1

[10] = target: T4, cyno CD46 expressed on 293 cells; test: FACS, 293 cells expressing cyno CD46, pH 6.0
Protocol: as §1

Binder	EC50 [1] [µg/mL]	ratio (ph 7.4/pH 6.0) [2]	Kd [3] [nM]	koff [3] [s⁻¹]	kon [3] [M⁻¹ s⁻¹]	Kd [4] [nM]	koff [4] [s⁻¹]	kon [4] [M⁻¹ s⁻¹]	Kd [5] [nM]	koff [5] [s⁻¹]	kon [5] [M⁻¹ s⁻¹]	Kd [6] [nM]	koff [6] [s⁻¹]	kon [6] [M⁻¹ s⁻¹]	Kd [7] [nM]	koff [7] [s⁻¹]	kon [7] [M⁻¹ s⁻¹]	Kd [8] [nM]	koff [8] [s⁻¹]	kon [8] [M⁻¹ s⁻¹]	other results
BAP133-2-03-03-SL (antibody, V domains shown, the killing assays used the ADC form; also called BAP133-02-03-03-SL; CPE hit BAP133-2-03-03-SL) VH: EVQLVESGGGLVQPGGSLRLSCAASGGSVSSYDISWIRQSPSRGLEWLGVIWTDGGTNYNSAFMSRFTISRDDSKNTAYLQMNSLKTEDTAVYYCERVYDGYPWFAYWGQGTLVTVSS VL: AIQLTQSPSSLSASVGDRVTITCRASQGISNYLNWYLQKPGQSPQLLIYYTSSLHSGVPDRFSGSGSGTDFTLKISRVEAEDVGVYYCQQYIKLPWTFGQGTKVEIK	1.15	11	0.89	0.000778	874000	2.55	0.00255	1e+06	5.47	0.00242	442000	1.29	0.000736	571000	2.36	0.000915	388000	2.33	0.00198	849000	Ratio (pH 7.4/6.0) [9]: 11; EC50 [10]: 0.104 µg/mL
BA-133-04-01 (antibody, V domains shown, also called CPE hit BA133-04-01) VH: EVQLVESGGGLVQPGGSLRLSCAASGGSVSSYDISWIRQSPSRGLEWLGVIWTDGGTNYNSAFMSRFTISRDDSKNTAYLQMNSLKTEDTAVYYCERVYDGYPWFAYWGQGTLVTVSS VL: AIQLTQSPSSLSASVGDRVTITCRASQWISNYLNWYLQKPGQSPQLLIYYTSSLHSGVPDRFSGSGSGTDFTLKISRVEAEDVGVYYCQQYIKLPWTFGQGTKVEIK	0.958	9.2	3.99	0.00154	385000	0.465	0.000757	1.63e+06	1.29	0.000893	690000	1.77	0.00123	696000	0.991	0.00113	1.14e+06	0.558	0.000662	1.19e+06	Ratio (pH 7.4/6.0) [9]: 8.4; EC50 [10]: 0.114 µg/mL
